{"source": "patent US20230233676A1", "about": "“Use of Approved Anti-CD38 Antibody Drug Product in Combination with Pomalidomide and Dexamethasone to Treat Multiple Myeloma” (Janssen Biotech, Inc., priority 2022, published 2023)", "key": {"[1]": {"target": "T1, CD38 on red blood cells (RBCs) (Homo sapiens, UniProt P28907)", "T1 construct": "endogenous in cells; host or cells: red blood cells (patient / reagent RBCs)", "test": "Interference with serological testing (Indirect Antiglobulin Test)", "description": "Since the Kell blood group system is also sensitive to DTT treatment, supply K-negative units after ruling out or identifying alloantibodies using DTT-treated RBCs."}, "[2]": {"test": "Daratumumab pharmacokinetics in patients with light chain (AL) amyloidosis", "assay_type": "in vivo, human"}, "[3]": {"conditions": "human, in vivo"}, "[4]": {"tested_on": "patients with relapsed or refractory multiple myeloma", "test": "COLUMBA randomized non-inferiority study, DARZALEX FASPRO monotherapy versus intravenous daratumumab;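 also: randomized arms stratified by body weight, myeloma type and count of earlier treatment lines, enrolled patients having a median of 4 previous lines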", "source_text": "The major efficacy outcome measures were ORR by the IMWG response criteria and maximum Ctrough at pre-dose Cycle 3 Day 1 [see Clinical Pharmacology (12.3)]. Randomization was stratified by body weight, myeloma type, and number of prior lines of therapy.\nPatients had received a median of 4 prior lines of therapy. […] Forty-nine percent of patients were refractory both a PI and an immunomodulatory agent. Eighty-two percent of patients were refractory to their last line of prior systemic therapy."}, "[5]": {"tested_on": "monkeys", "test": "Hyaluronidase given subcutaneously to monkeys (systemic exposure, reproductive tissues)", "assay_type": "in vivo", "procedure": "No carcinogenicity, genotoxicity, or fertility studies were conducted for recombinant human hyaluronidase. […] As hyaluronidase is a recombinant form of the endogenous human hyaluronidase, no carcinogenicity, mutagenesis, or effects on fertility are expected."}, "[6]": {"tested_on": "pregnant mice and offspring", "test": "Hyaluronidase developmental toxicity in mice", "assay_type": "in vivo", "description": "There were no effects on pre- and post-natal development through sexual maturity in offspring of mice treated daily from implantation through lactation with 990,000 U/kg hyaluronidase subcutaneously, which is 134 times higher than the human doses."}, "[7]": {"conditions": "All Grades, worsening from baseline"}, "[8]": {"conditions": "monkeys given 22,000 U/kg/week subcutaneously for 39 weeks"}}, "note": "Where two headings read alike, the source gives them in different places. Marks after values point to notes of the source that are not given here."}
{"molecule": "Daratumumab: immunoglobulin G1 kappa (IgG1κ) human monoclonal antibody that binds to the CD38 antigen; heavy chain SEQ ID NO: 12, light chain SEQ ID NO: 13", "values": [{"measurement": "Indirect Antiglobulin Test (Indirect Coombs test)", "setting": "[1]", "result": "positive"}, {"measurement": "persistence of positive indirect antiglobulin test after the last administration", "setting": "[1]", "result": "up to 6 months"}, {"measurement": "estimated mean volume of distribution", "setting": "[2]; CV 28%", "result": 10.8, "unit": "L"}, {"measurement": "estimated mean linear clearance", "setting": "[2]; CV 42%", "result": 210, "unit": "mL/day"}, {"measurement": "estimated mean elimination half-life associated with linear clearance", "setting": "[2]; CV 74%", "result": 28, "unit": "days"}, {"measurement": "estimated mean elimination half-life associated with linear clearance", "setting": "[3]", "result": 20, "unit": "days"}, {"measurement": "estimated mean linear clearance", "setting": "[3]", "result": 119, "unit": "mL/day"}, {"measurement": "estimated mean volume of distribution for the central compartment", "setting": "[3]", "result": 5.2, "unit": "L"}, {"measurement": "estimated mean volume of distribution, peripheral compartment", "setting": "[3]", "result": 3.8, "unit": "L"}, {"measurement": "pharmacokinetics in geriatric patients compared to younger adult patients", "setting": "[3]", "result": "No clinically meaningful differences"}]}
{"molecule": "Intravenous Daratumumab: daratumumab 16 mg/kg administered intravenously", "values": [{"measurement": "Observed mean ± SD max Ctrough after 8th dose", "setting": "[3]", "result": "522 ± 226^a,b μg/mL"}, {"measurement": "Back pain", "setting": "[4]; All Grades", "result": 12, "unit": "%"}, {"measurement": "Chills", "setting": "[4]; All Grades", "result": 12, "unit": "%"}, {"measurement": "Cough", "setting": "[4]; All Grades", "result": 14, "unit": "%"}, {"measurement": "Diarrhea", "setting": "[4]; All Grades", "result": 11, "unit": "%"}, {"measurement": "Dyspnea", "setting": "[4]; All Grades", "result": 11, "unit": "%"}, {"measurement": "Fatigue", "setting": "[4]; All Grades", "result": 16, "unit": "%"}, {"measurement": "Infusion reactions", "setting": "[4]; All Grades", "result": 34, "unit": "%"}, {"measurement": "Nausea", "setting": "[4]; All Grades", "result": 11, "unit": "%"}, {"measurement": "Pneumonia", "setting": "[4]; All Grades", "result": 10, "unit": "%"}, {"measurement": "Pyrexia", "setting": "[4]; All Grades", "result": 13, "unit": "%"}, {"measurement": "Decreased hemoglobin", "setting": "[4]; [7]", "result": 39, "unit": "%"}, {"measurement": "Decreased leukocytes", "setting": "[4]; [7]", "result": 57, "unit": "%"}, {"measurement": "Decreased lymphocytes", "setting": "[4]; [7]", "result": 56, "unit": "%"}, {"measurement": "Decreased neutrophils", "setting": "[4]; [7]", "result": 43, "unit": "%"}, {"measurement": "Decreased platelets", "setting": "[4]; [7]", "result": 45, "unit": "%"}, {"measurement": "Back pain", "setting": "[4]; Grade ≥3", "result": "3^# %"}, {"measurement": "Chills", "setting": "[4]; Grade ≥3", "result": "1^# %"}, {"measurement": "Cough", "setting": "[4]; Grade ≥3", "result": 0, "unit": "%"}, {"measurement": "Diarrhea", "setting": "[4]; Grade ≥3", "result": "0.4^# %"}, {"measurement": "Dyspnea", "setting": "[4]; Grade ≥3", "result": "1^# %"}, {"measurement": "Fatigue", "setting": "[4]; Grade ≥3", "result": "2^# %"}, {"measurement": "Infusion reactions", "setting": "[4]; Grade ≥3", "result": "5^# %"}, {"measurement": "Nausea", "setting": "[4]; Grade ≥3", "result": "0.4^# %"}, {"measurement": "Pneumonia", "setting": "[4]; Grade ≥3", "result": "6^@ %"}, {"measurement": "Pyrexia", "setting": "[4]; Grade ≥3", "result": "1^# %"}, {"measurement": "Decreased hemoglobin", "setting": "[4]; Grades 3-4", "result": 16, "unit": "%"}, {"measurement": "Decreased leukocytes", "setting": "[4]; Grades 3-4", "result": 14, "unit": "%"}, {"measurement": "Decreased lymphocytes", "setting": "[4]; Grades 3-4", "result": 36, "unit": "%"}, {"measurement": "Decreased neutrophils", "setting": "[4]; Grades 3-4", "result": 11, "unit": "%"}, {"measurement": "Decreased platelets", "setting": "[4]; Grades 3-4", "result": 14, "unit": "%"}, {"measurement": "CR or better", "setting": "[4]; in vivo", "result": "(2.7%)"}, {"measurement": "Median progression-free survival", "setting": "[4]; in vivo", "result": 6.1, "unit": "months"}, {"measurement": "Partial response (PR)", "setting": "[4]; in vivo", "result": "(20%)"}, {"measurement": "Very good partial response (VGPR)", "setting": "[4]; in vivo", "result": "(14%)"}, {"measurement": "Overall response (sCR + CR + VGPR + PR)", "setting": "[4]; intent-to-treat population", "result": "(37%)"}]}
{"molecule": "hyaluronidase: recombinant hyaluronidase rHuPH20 having the amino acid sequence of SEQ ID NO: 22 (protein, listed as Homo sapiens) LNFRAPPVIPNVPFLWAWNAPSEFCLGKFDEPLDMSLFSFIGSPRINATGQGVTIFYVDRLGYYPYIDSITGVTVNGGIPQKISLQDHLDKAKKDITFYMPVDNLGMAVIDWEEWRPTWARNWKPKDVYKNRSIELVQQQNVQLSLTEATEKAKQEFEKAGKDFLVETIKLGKLLRPNHLWGYYLFPDCYNHHYKKPGYNGSCFNVEIKRNDDLSWLWNESTALYPSIYLNTQQSPVAATLYVRNRVREAIRVSKIPDAKSPLPVFAYTRIVFTDQVLKFLSQDELVYTFGETVALGASGIVIWGTLSIMRSMKSCLLLDNYMETILNPYIINVTLAAKMCSQVLCQEQGVCIRKNWNSSDYLHLNPDNFAIQLEKGGKFTVRGKPTLEDLEQFSEKFYCSCYSTLSCKEKADVKDTDAVDVCIADGVCIDAFLKPPMETEEPQIFY", "values": [{"measurement": "systemic exposure of hyaluronidase", "setting": "[5]; monkeys given 22,000 U/kg subcutaneously", "result": "No systemic exposure"}, {"measurement": "effects on reproductive tissues and function", "setting": "[5]; [8]", "result": "no effects"}, {"measurement": "systemic exposure of hyaluronidase", "setting": "[5]; [8]", "result": "no systemic exposure"}, {"measurement": "effects on post-natal development through sexual maturity in offspring", "setting": "[6]; mice treated daily during lactation with 990,000 U/kg subcutaneously", "result": "no effects"}, {"measurement": "effects on pre- and post-natal development through sexual maturity in offspring", "setting": "[6]; mice treated daily from implantation through lactation with 990,000 U/kg subcutaneously", "result": "no effects"}, {"measurement": "effects on embryo-fetal development", "setting": "[6]; pregnant mice given 330,000 U/kg subcutaneously daily during organogenesis", "result": "no effects"}]}
